Measured values taken from a protein production outcome set (Wang et al. 2014).

Assay: label from the status in PepcDB records
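Note: failed if final PepcDB status was selected cloned or expressed and not failed if soluble or beyond.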

| Sequence | protein production |
| --- | --- |
| MKLGKTLAISCISMLSLSIWTQQVSAASAFDPSSEWMLGDWNGERTALKQKGYDFSIGYTGEMATVLDSKDTSRHGTEYAGQVALGTHFDLNKILGWQDTEAQITLTHRDGHDIKNKAAALEGQLSSTQEVYGRGQTTRLTDLWIKKKFFDQALDIKVGRFGESEDFNPAACDFQNLALCGDQMGNWNAGDQIHNWPVSQWAARVKYNVTPEVFAQVGVYEYNPENLKRSKGFNLSTDGSKGAVIPVEVVWQPKSGLINGLAGEYRAGYYYSTADANEINSTNKDHGQGGWLSFIQQLTAVNGDTSRGLKVVGQATFFDEATSRVKNTQSLAFAYKGLVDTRPKDELAIGFSRINLNDDAYLGKDVDSEYNSEIYYGIEATNWLTVRPNVQYVRHVGALKDGNNAWVGGIKFQTVF | failed |
| MKLIASNKKAYFDYEILETLEAGLALLGSEVKALRQTRVNLKDNFVKIIKGEAFLFGVHISYLDTIHAYYKPNERRERKLLLHKKQLLKWQIEASKERLSIVGLKLYFNQRNRAKIQIALVKGKRLHDKRQSLKEKALNKEILADLKHHFKG | failed |
| MKLIRVTLFLCALAILLLVTPTSSLQLKHPYSSPSQGLSKKIVTKMATRKLMIISSEYVMTSTSHEGSSEQLRVTSSGKSKDEEKKLSEEEEEKKALAKYLSMDYRTFRRRRPVHNKALPLDP | failed |
| MKLITKEVRIGIAGVAALCLLVFGINYLKGINMFKPASYFYVKFHNVNGLAQSSPVFADGVRVGIVRDIAYDYNQPENVIVEVEVDTDLRIPKGSSAELVPELMGGVRMNILLANNPRERYTVGDTIPGTLNNGMMEKVAAMMPAVEKMLPKLDSILTSLNTIMADQSIPATLHSIEKTTANLEVTSRQLKVLMNNDIPQLTGKLNTIGDNFVVISGNLKEIDYAATFKKIDTTLSNVKMLTEKLNSKDNTVGLLLNDPQLYNNLNQTTINAANLLEDLKEHPKRYVHFSLFGKKDKLEHHHHHH | failed |
| MKLIWSPETASKAYIDTVKSCENLGTPGAAELVAAMAAGWNANLIVETWSEGETIAISVGLNIASRHTNGRHICIVPNARSQTAYLQAMAEQSCSNLPETIIMNEEGEELEHTMQTLQGIDFLVVDWDQKDFAANVLRNAVFGSRGAVVVCRSGYRRSTSCFSWTKAFSDRNVVRTVTLPVSGGLEIAHVAAARSSGKSDNNSNKRKWIKHFDQRSGEEHVIRK | failed |
| MKLKDDPDIIRWINSRPRQALFASVAMVISTMSIGLFKGFDMWTADFFIFSCLLIGFGLLVGWLQKIYYKKVIFEENSDR | failed |
| MKLKKRKVAAALLKRFTLPLLFTTGSLGAVTYEVHGDFINFAKVGFNHSPINPVKGIYPTETFVNLTGKLEGSVHLGRGWTVNLGGVLGGQAYDGTKYDRWAKDFTPPSYWDKTSCGTDSMSLCMNATKMWQQSGPGGVINPRGIGWEYMGEWNGLFPNYYPANAYLPGGSRRYQVYKANLTYDSDRVHMVMGRFDITEQEQMDWIYQLFQGFYGTFKLTKNMKFLLFSGWGRGIADGQWLFPIYREKPWGVHKAGIIYRPTKNLMIHPYVYLIPMVGTLPGAKIEYDTNPEFSGRGIRNRTTFYALYDYRWNNAEYGRYAPARYNTWDPFLDNGKWRGLQGPGGATLLLRHHIDINNYFVVGGAYLNIGNPNMNLGTWGNPVAVDGIEQWVGSIYSLGFAGIDNITDADAFTEYVKGGGKHGKFSWSVYQRFTTAPRALEYGIGMYLDYQFSKHVKAGLKLVWLEFQIRAGYNPGTGFLGPNGQPLNLNTGLFESSAFAQGPQNMGGIAKSITQDRSHLMTHISYSF | failed |
| MKLKTKTMEWSGNSLKLLDQRKLPFIEEYVECKTHEEVAHAIKEMIVRGAPAIGVAAAFGYVLGLRDYKTGSLTDWMKQVKETLARTRPTAVNLFWALNRMEKVFFENADRENLFEILENEALKMAYEDIEVNKAIGKNGAQLIKDGSTILTHCNAGALATVDYGTALGVIRAAVESGKRIRVFADETRPYLQGARLTAWELMKDGIEVYVITDNMAGWLMKRGLIDAVVVGADRIALNGDTANKIGTYSLAVLAKRNNIPFYVAAPVSTIDPTIRSGEEIPIEERRPEEVTHCGGNRIAPEGVKVLNPAFDVTENTLITAIITEKGVIRPPFEENIKKILEV | not failed |
| MKLKTRICKKNSIRNSEKVEESSKSTTNCPLSCVDWSSNEEIYFVSDDHQIFKWSDVSRDSVEVAKLPDDFVPTDMHWLLLGGRSSGGGKGSDTLLICSNDGRFVILNKSARVERSISAHAAAISSGRWSPDGAGLLTAGEDGVIKIWSRSGMLRSTVVQNEESIRCARWAPNSNSIVFCQGGHISIKPLAANSKIIRWRAHDGLVLSLSWSTQSNIIASGGEDFRFKIWDAQGANLFTSAAEEYAITSVAFNPEKDYLLWSYNTARFSSPRVGSIFNLSWSADGTQATCGTSTGQLIVAYAIEQQLVSGNLKATSKSRKSITLKDIATGTQDILDFPQRVVSFGLGYGHLVVATTNQVHIYNEKYINTPIIIDGRNDTRVIEVGKKYFMILDALSIWVYTYTGRLHLNPRYPGSQAQIPLLTWRSLSLGLDVLAIRDNSDPTVLHLFDLIPGASRQYDPHSLRAKQQLVQIAACRAGSPEDQFVAFIDSNRELFVSESRNLNSERIDEIYKIGTQLTAIMWASETNILVGVHDSCYSIWYCPGEGASDPTIIALTTITLDTTEFGKHITIESFEESVLTFRSAGALLPVNVNMYCEILHRALLEGQWQQALKICRMGQHSSLWATLAAVATRKHQLQISEEAYSAALQIDKVSYLQHLKALTPSSAEQMAENSLMLGRMLEAETILLHGKKIEQAVGLALRMHNWRRALEISQKHKGEQPELVPRVLQERRKYLKALQREEWDPLYLPLVAKEEADNTSE | failed |
| MKLLNVLLLTTSLSVFYTYAETDYQWLRDDSRSEPAVKQFLAEHNRKTDHWFAPAKPLVQELVNEWQQTSQHKAPPPALIYANQQYNDIQWNGHRHIVKIGAQGQIEPLLNLSARAEPFDYYQLASWSLDRSVQSVALAEDTRGDEQFKLTIVRLADRTEQIVSETASTYFAWAADGKSLYYLSDLNGSTQLQRFELETGQSTRLAEWRSAEWLFSLYSASNPRYLVVQQNNENSTQQRLLDTQTGELMPWLRTTEPGLEYYADVLGETLYINSNHQGAFRLYRQPLHTKQDWQSVTTHKEIGSLSNFYLFDAGIVLVENQTLAPKVWVLDSQGEVRTHFELRDLGQVAWISRNGDAVSNRLRVRTMSMTEPASWHELDVAQLQWQQLSQDHYADFDPKQYQTQTVWVTQGAIQVPVTLAYRSDKLTPNSSVVLYGYGAYGVTMKPYFMPQIVSLLDRGMIYAIAHVRGGGYLGEAWHQAGAGLNKQNGIDDFLAAARYLTHFQQGERAIYTIGGSAGGTLVAAALNQQPNLFAGAVLQVPFVDVLASMSDTSQALTAQQYQEWGNPQQPEQRQVMQAYDPLSNLRAAPYPPTLVNVGWWDNRVPYWEGARYLARLSDVSQGAGPYLLSTDFQAGHASDRRQALEKQAREYAFFLTLDKTRKAGQ | failed |
| MKLQGSNILGQEQIDLLTTRGLNFVWFPKQLETIYRFQYQNGAAYEFRYRAPIILILYLFLSFGIYQVLPTEQVLSWLSYYSWVGIIVLIAWILSFIKKLNQWFDYYVGIGSSAAVAITFILINVLENGQDNVLFHAAMMYAIVIIYGAVGMRFYTAIIAGWVGGLIGILVSTYLNGDIDWTFLNRTYTFSSFLGMTLAYATDRQHRENYLQNCMIELNRIELMQQAQQLSLLSQQDALTGLANRRYLDETLDNEWRRALRHETPLTIMMVDIDFFKPYNDSLGHLKGDQCLKDIATAISSIAARSGDLVARYGGEEFLLLFPMTNAQQAKIQAERLMNAIKKIAIVHPCSSVSPYVTISVGVATTIPRLNDSISAFVSRADHALYQAKTNGRNQYQIALNEEQIVDLT | failed |
| MKLRHCLIIVFACCAALWSESPSIADDAVRTSLAGLEWHVVTDVWPPFRIEQETGLVGIDVDILKALSTSLGLRLRISRAPWGRCLKMLETGAADAMIGLAKSAEREVYIRYVPTSYYTCSPRFYILAGARRAVLTYDDLEGMRVGYVAQSRYFEPFDSDTKLQKYAVPTERQLLELLLAGRVDVMVGTDCQVDYELAEAGLLERVVVAPYRPDAHTRLYLGFSRKSRFVPRIALFDDAMRDLLEKGALKQIRASYLPDSSVSGR | failed |
| MKLSQQSLSIIESAIQKAVGKYVCNCEQTVVTDIHLQPDQTSGQLNIYNDDDEELANVMVEEWATYDGDDFLENIEPGLRSILCRMKDAGDFDKVTILKPYSFVLVDEDKETVTELLLVDDDTMLVNDELLKGLDKELDDFLKELLEK | failed |
| MKLTKGKVLLAGCMAMAMSHSVLAQDIKVAIVGAMSGPVAQYGDMQFTGARQAIADINASGGIKGDKLVGVEYDDACDPKQAVAVANKVINDGIRYVIGHLCSSSTQPASDIYEDEGVIMITPAATNADLTTRGYKMIMRTTGLDSDQGPTAAKYIVETIKPKRIAVVHDKQQYGEGLARSVRDSLKEQGAEVVLFEGVTAGDKDFSTLVARLKKENVDFVYFGGYYPEMGQILRQAKQAGLTARFMGPEGVGNSSLSNIAGEASEGMLVTLPKRYDQVPANQPIVDALKAKKLDPTGPFVWTTYAALQSLTTAMERTGSKEPADLANDLKTGKPVETVMGPLSWDDKGDLKGFEFGIFEWHADGSSTAVK | failed |
| MKLYLILLPVLYLIVSYISIFKMHSVITRILRIVMGILLLFVVALTTLQFPKENWWVFVVLLLLVGNVEVTGFKELKDDKKGVSILNILSLLLFVIFIILIFILY | failed |
| MKMKLPLPKPSTKIAKKPQQLALLNQRLNQLSQQFKQALAQEDYQRAYECVHEVIHLVPDHRVAYMDLAYTALRLKRFDAAYQHYQKALELSEKNIDPNIYDGLTEVAYFLNQQEQVRHYGHLSLKTKQKQVASETMTALPHSAPPPISIESPEQNIIAFSLFGDQPRYCETAILNVIEARKIYPEWRCRFYVDESVPSSVLSRLQQHGAQLVLVSPEQQQISGLFWRFFVMDDPEVKRFLIRDADSLISMREREAVDEWLQSDRWFHVMRDYYSHTELILAGMWGGCTGIFHQIETSIRQYIASGRYLNERVIDQHFLRYCIWPTLQQSVITHDRYLFADNASRFPQDRDRQPDWRIQYQHVGMNESAATVSVTVNHPDAVRVKWVLLNQMKQIVCQYSAQVLSNRSIEIHLPENYVEKIRLKAWNLQIYPYEN | failed |
| MKMLNRLDLGVPCLRAGFAGEQAFFLAMDGRLHVQQGDQRRVVALHDGDVLSACAAPGQADAAAWLLSAGEDGRVMRAGAGEPDCVASVPNKWVTALAVAADGALAYASGRTVWLAGGGGEAAALPQERPVQALRFSHGGRWLAVAGYDGLALYDRQAGGEPQRLDWKGMPTRVAFSPDDRFVLVATRDAVLHGWRLDTLRHFRMVGYPRAVGSWSWLAGGQWLATDGSAGAVLWPFEGEEGPIGSTPLALGERPDGEVSAVACHPARPWVAVGYADGLMVLESTDGALRRILGQAGRDRVACLAWDRAGARLAYGTPSGACGVIQADTGEEG | failed |
| MKMTAKMRREFPTAFLLLFLVPVMIPVGEAVWLDVPPTGTKCVSEEIQSNVVVLADYLIISEDHEVMPTISVKVTSPYGNNLHNMENVTHGQFAFTTQESGNYLACFWADEKSHGNKNVSINIDWRTGIAAKDWASIAKKEKIEGVELEIRKLEGAVEAIHENILYLRNREADMRTMSEKTNSRVAWYSIMSLGVCIAVSGFQVLYLKQYFEKKKLI | failed |
| MKNDDLLMQIMMLDFAVQDSALFIDTHPCDKEAMNYFNEAATRLKAAKKEYQKQGHALVNREVGAYQNDYLSAPWPWVGDHKCGCTKNVCNTL | failed |
| MKNFNDEEHNSQLTDEVLPEPEDARVIANILKAVGVESFDTRVVAQLVEFVYKYIGEVLELSKTFAQYAEREDIRQDDVKLAISSLLSKSFTQPPSRDVLLQLCRERNAVPLPVVDTYVGIQLPPKEFQLTTRNYQLKRKTTTESVASQELSEATGNISIGESSLQPNEEESNTMNT | failed |
